The record followed here is patent publication US20250340662A1 (AKIRAM THERAPEUTICS, published 2025).

T1: Human v6-peptide (human, N-terminal biotin)
T1 construct: Bachem #4108947, 43 amino acids, synthetic; also called Hm v6-peptide; hm v6-peptide
T1 peptide: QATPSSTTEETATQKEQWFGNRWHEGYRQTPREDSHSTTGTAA

T2: Cynomolgus v6-peptide (cynomolgus, UniProt A0A2K5VJE0 387-429, N-terminal biotin)
T2 construct: domain: v6-region (43 amino acids); also called Cm v6-peptide; cm v6-peptide
T2 peptide: T1 peptide with T3I, R28L

B1: U-MN114-19 IgG4 S228P (antibody, V domains shown)
VH: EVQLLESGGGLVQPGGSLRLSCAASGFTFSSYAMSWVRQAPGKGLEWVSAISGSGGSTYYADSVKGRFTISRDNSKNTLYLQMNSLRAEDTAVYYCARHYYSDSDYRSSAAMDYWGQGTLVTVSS
VL: DIQMTQSPSSLSASVGDRVTITCRASQSISSYLNWYQQKPGKAPKLLIYAASSLQSGVPSRFSGSGSGTDFTLTISSLQPEDFATYYCQQDLYLLTFGQGTKLEIK
notes: Human IgG4 S228P (EU), kappa; also called MN19; parental clone
B2: AL-MN114-132 IgG1 LALA (antibody, V domains shown)
VH: EVQLLESGGGLVQPGGSLRLSCAASGFTFSSYAMSWVRQAPGKGLEWVSAISGGGSSTYYADSVKGRFTISRDNSKNTLYLQMNSLRAEDTAVYYCARHYYSDSDYRSSAAMDYWGQGTLVTVSS
VL: B1 VL
notes: item 20 iii) gives heavy 77 / light 96 without naming the format
B3: AL-MN114-132 IgG1 LALA IAHA (antibody, V domains shown)
VH: B2 VH
VL: B1 VL
notes: Human IgG1 LALA IAHA, kappa
B4: AL-MN114-444 IgG1 LALA IAHA (antibody, V domains shown)
VH: B2 VH with S30R, Y32F, Y59F
VL: B1 VL with S30G, A50S
notes: Human IgG1 LALA IAHA, kappa
B5: U-MN114-19 IgG1 LALA IAHA (antibody, V domains shown)
VH: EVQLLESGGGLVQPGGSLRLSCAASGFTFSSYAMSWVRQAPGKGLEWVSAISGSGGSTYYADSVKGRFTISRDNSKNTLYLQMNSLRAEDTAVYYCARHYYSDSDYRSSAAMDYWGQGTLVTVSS
VL: B1 VL
notes: also called parental clone U-MN114-19
B6: U-MN114-19 IgG1 LALA (antibody, V domains shown)
VH: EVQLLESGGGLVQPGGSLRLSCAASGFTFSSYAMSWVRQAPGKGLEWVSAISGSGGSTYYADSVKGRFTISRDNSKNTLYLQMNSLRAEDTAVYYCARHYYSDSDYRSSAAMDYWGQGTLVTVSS
VL: B1 VL
notes: item 20 xxi) gives heavy 149 / light 150 without naming the format; also called parental clone U-MN114-19
B7: AL-MN114-465 IgG1 LALA IAHA (antibody, V domains shown)
VH: B2 VH with T28S, S30G, G53A, Y59F
VL: B1 VL with A50T
notes: Human IgG1 LALA IAHA, kappa
B8: AL-MN114-71 IgG1 LALA IAHA (antibody, V domains shown)
VH: B2 VH with T28S, S30R, Y32F, Y59F
VL: B1 VL with S53T
notes: Human IgG1 LALA IAHA, kappa

Substitutions are numbered along the chain they refer to. Names and notes keep the numbering of the source.

T4 sequence (P16070 other isoform, or with tags, fused parts or gaps limits assumed): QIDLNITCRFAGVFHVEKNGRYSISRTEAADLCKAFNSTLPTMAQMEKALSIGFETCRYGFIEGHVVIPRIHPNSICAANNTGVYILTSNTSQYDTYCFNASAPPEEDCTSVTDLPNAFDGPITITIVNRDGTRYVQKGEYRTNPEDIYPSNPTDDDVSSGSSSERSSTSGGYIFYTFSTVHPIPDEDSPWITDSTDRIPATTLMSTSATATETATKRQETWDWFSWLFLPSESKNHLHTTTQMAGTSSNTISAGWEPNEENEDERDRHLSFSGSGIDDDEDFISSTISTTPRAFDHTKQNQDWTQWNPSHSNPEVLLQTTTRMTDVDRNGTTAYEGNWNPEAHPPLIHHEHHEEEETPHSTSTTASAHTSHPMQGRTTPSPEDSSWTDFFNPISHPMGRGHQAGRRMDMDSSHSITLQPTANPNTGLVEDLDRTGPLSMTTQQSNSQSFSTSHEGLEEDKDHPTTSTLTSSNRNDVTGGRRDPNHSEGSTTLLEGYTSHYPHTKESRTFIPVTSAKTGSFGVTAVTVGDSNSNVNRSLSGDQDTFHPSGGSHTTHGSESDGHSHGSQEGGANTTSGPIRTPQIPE

The target in the first assay is T1, Human v6-peptide. Description: SPR SCK, biotin-peptide on SA chip, antibody injected. As to the method: (§1) For kinetic measurements of human v6-peptide, a streptavidin (SA) sensor chip was used to immobilize the v6-peptide at approximately 20 RU. A five-fold dilution series of each antibody, consisting of five concentrations ranging between 50 nM-0.08 nM, were prepared in running buffer and sequentially injected over the chip surfaces.
(§2) All experiments were performed at 25° C. in running buffer (HBS supplemented with 0.05% Tween20, pH 7.5) and the chip surfaces were regenerated with 10 mM glycine-HCl, pH 2.1. By subtracting the response curve of a reference surface (an α-human Kappa antibody immobilized surface or a streptavidin immobilized surface) and to a blank run (running buffer injected instead of antigen or antibody) response curve sensorgrams were obtained. Data was analyzed using the Biacore T200 Evaluation 3.1 software and a 1:1 Langmuir binding model.
For B1, the dissociation rate constant (koff) stood at 0.00018 s⁻¹ and the kon was found to be 730000 M⁻¹ s⁻¹.

For the next assay, the target named is T3, Human CD44v6 iso4-Fc (human, UniProt P16070-4 21-606, limits assumed, chemically biotinylated in the form called Bio-CD44v6).
T3 construct: Custom ordered from ProMab, produced in HKB11 cells; The biotinylated and the plain form are kept as one molecule; also called Bio-CD44v6; bio-CD44v6
T3 sequence (P16070 other isoform, or with tags, fused parts or gaps limits assumed): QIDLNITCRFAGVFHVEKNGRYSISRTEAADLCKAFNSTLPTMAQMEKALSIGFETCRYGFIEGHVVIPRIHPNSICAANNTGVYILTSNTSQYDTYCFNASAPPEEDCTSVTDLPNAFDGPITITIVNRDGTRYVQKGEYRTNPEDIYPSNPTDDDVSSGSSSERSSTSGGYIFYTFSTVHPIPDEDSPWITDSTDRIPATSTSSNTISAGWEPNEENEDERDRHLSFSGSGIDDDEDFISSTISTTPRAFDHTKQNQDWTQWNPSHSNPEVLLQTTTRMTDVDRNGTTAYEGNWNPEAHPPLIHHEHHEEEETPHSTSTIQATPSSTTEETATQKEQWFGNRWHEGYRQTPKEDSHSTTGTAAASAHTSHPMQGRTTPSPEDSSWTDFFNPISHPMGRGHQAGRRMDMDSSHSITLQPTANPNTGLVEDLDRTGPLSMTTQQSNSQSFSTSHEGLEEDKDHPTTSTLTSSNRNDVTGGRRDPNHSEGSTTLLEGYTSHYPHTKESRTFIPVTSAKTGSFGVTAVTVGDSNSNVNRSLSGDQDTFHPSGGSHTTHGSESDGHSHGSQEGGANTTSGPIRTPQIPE
Put plainly: SPR SCK, antibody immobilised, CD44v6-Fc injected. The method, then: (§3) The SPR measurements were performed on a BIAcore T200 instrument (Cytiva) using a SCK approach. Each antibody was directly immobilized onto a separate surface of a CM5 series S sensor chip using EDC/NHS amine coupling chemistry according to manufacturer's recommendations. Immobilization levels were set to 1500 RU. All experiments were performed at 25° C. in running buffer (HBS, 0.05% Tween20, pH 7.5). A three-fold dilution series of CD44v6 and negative control CD44, comprised of five concentrations ranging between 10-0.12 nM, were prepared in running buffer. A four-fold dilution series of human, cynomolgus and rabbit v6-peptide, respectively, comprised of five concentrations ranging between 100-0.39 nM, were also prepared in running buffer. Each dilution series were sequentially injected, starting with the lowest concentration first, over an immobilized antibody clone and chip surfaces were regenerated with 10 mM glycin-HCl, pH 2.1. See table 10 for specifications of antigens used in SPR measurements. By subtracting the response curve of a reference surface (an activated and deactivated chip surface) and to a blank run (running buffer injected instead of antigen) response curve sensorgrams were obtained. Data was analyzed using the Biacore T200 Evaluation 3.1 software and a 1:1 Langmuir binding model.
In turn, B2 yielded a koff of 0.00012 s⁻¹ and an association rate constant (kon) of 1.9e+06 M⁻¹ s⁻¹.

As to B3, the koff amounted to 0.00021 s⁻¹ and the kon was found to be 140000 M⁻¹ s⁻¹.

The molecule B4 returned a koff of 0.00032 s⁻¹ and an association rate constant (kon) of 320000 M⁻¹ s⁻¹.

B5 had a koff of 0.00012 s⁻¹ and a kon of 2.5e+06 M⁻¹ s⁻¹.

For the molecule B6, the koff was determined as 0.00015 s⁻¹ and the kon was found to be 130000 M⁻¹ s⁻¹.

On to B7, for which the koff is 0.00027 s⁻¹ and the kon was 170000 M⁻¹ s⁻¹.

Molecule B8 gave a koff of 0.00026 s⁻¹ and a kon of 230000 M⁻¹ s⁻¹.

The next assay concerns the target T4, Human CD44 iso6-Fc (human, UniProt P16070-6 21-606, limits assumed, chemically biotinylated in the form called Bio-CD44).
T4 construct: Negative control antigen, ProMab, HKB11 cells; also called Bio-CD44; bio-CD44
Description: SPR SCK, antibody immobilised, CD44-Fc injected. As to the method:
as §3
As for B2, the binding result was “no binding (tested: 10 nM highest CD44 concentration)”.

As for B3, the binding result is listed as “no binding (tested: 10 nM highest CD44 concentration)”.

On to B4, for which the binding result is reported as “no binding (tested: 10 nM highest CD44 concentration)”.

B5: the binding result is on record as “no binding (tested: 10 nM highest CD44 concentration)”.

As to B6, the binding result was “no binding (tested: 10 nM highest CD44 concentration)”.

B7: the binding result is recorded as “no binding (tested: 10 nM highest CD44 concentration)”.

Take B8: the binding result is recorded as “no binding (tested: 10 nM highest CD44 concentration)”.

A further assay addresses T3, Human CD44v6 iso4-Fc. Put plainly: SPR SCK, antibody captured via anti-kappa, CD44v6-Fc injected; apparent KD. The method, then: (§4) Kinetic measurements were performed on a BIAcore T200 instrument (Cytiva) using a SCK approach. An α-human Kappa antibody (GE Healthcare #28958325), functioning as a capture ligand, was immobilized onto all four surfaces of a CM5-S amine sensor chip according to manufacturer's recommendations. Antibodies were injected and captured at equal response units (RU). A four-fold dilution series of CD44v6, consisting of five concentrations ranging between 80 nM-0.3 nM, were prepared in running buffer and sequentially injected over the chip surfaces. Single injections of 100 nM CD44 (negative control) was also performed.
as §2
Regarding B1, the Kd amounted to 3.3 nM.

The target of the next assay is T1, Human v6-peptide. Put plainly: SPR SCK, biotin-peptide on SA chip, antibody injected; apparent KD. The method, then: as §1, §2
For the molecule B1, the Kd worked out at 0.28 nM.

For a further assay, the target named is T3, Human CD44v6 iso4-Fc. Put plainly: SPR SCK, antibody captured via anti-kappa, CD44v6-Fc injected. As to the method: as §4, §2
B1 displayed a koff of 0.001 s⁻¹ and a kon of 320000 M⁻¹ s⁻¹.

The target in a further assay is T5, Rabbit v6-peptide (rabbit).
T5 construct: domain: v6-region (43 amino acids); also called Rb v6-peptide; rb v6-peptide
Put plainly: SPR SCK, antibody immobilised, peptide injected. The method, then: as §3
Consider B2, for which the Kd is 13 nM, the koff worked out at 0.023 s⁻¹ and the kon came out at 1.7e+06 M⁻¹ s⁻¹.

Consider B3, for which the Kd worked out at 37 nM, the koff came to 0.037 s⁻¹ and the kon is 990000 M⁻¹ s⁻¹.

As for B4, the Kd was 15 nM, the off-rate (koff) came to 0.012 s⁻¹ and the kon was 820000 M⁻¹ s⁻¹.

B5 registered a Kd of 31 nM, a koff of 0.067 s⁻¹ and a kon of 2.2e+06 M⁻¹ s⁻¹.

Molecule B6 gave a Kd of 79 nM, an off-rate constant (koff) of 0.15 s⁻¹ and a kon of 2e+06 M⁻¹ s⁻¹.

As for B7, the Kd turned out to be 19 nM, the koff was 0.015 s⁻¹ and the kon was 830000 M⁻¹ s⁻¹.

In the case of B8, the Kd was 22 nM, the koff was 0.016 s⁻¹ and the kon came out at 710000 M⁻¹ s⁻¹.

The next assay has as its target T1, Human v6-peptide. Description: SPR SCK, antibody immobilised, peptide injected. The method, then:
as §3
The molecule B2 showed a Kd of 12 nM, an off-rate (koff) of 0.013 s⁻¹ and a kon of 1.1e+06 M⁻¹ s⁻¹.

Turning to B3, the Kd is 22 nM, the koff was 0.016 s⁻¹ and the on-rate (kon) was found to be 730000 M⁻¹ s⁻¹.

B4 returned a Kd of 12 nM, an off-rate constant (koff) of 0.0083 s⁻¹ and a kon of 710000 M⁻¹ s⁻¹.

In the case of B5, the Kd came out at 17 nM, the off-rate constant (koff) stood at 0.019 s⁻¹ and the kon stood at 1.1e+06 M⁻¹ s⁻¹.

In the case of B6, the Kd stood at 58 nM, the koff was 0.049 s⁻¹ and the kon turned out to be 830000 M⁻¹ s⁻¹.

For B7, the Kd is 14 nM, the koff is 0.0093 s⁻¹ and the kon was 680000 M⁻¹ s⁻¹.

Turning to B8, the Kd was 17 nM, the koff came out at 0.011 s⁻¹ and the kon was 620000 M⁻¹ s⁻¹.

The next assay addresses T2, Cynomolgus v6-peptide. Put plainly: SPR SCK, antibody immobilised, peptide injected. As to the method: as §3
B2 came in with a Kd of 7.3 nM, a koff of 0.0096 s⁻¹ and a kon of 1.3e+06 M⁻¹ s⁻¹.

In turn, B3 gave a Kd of 17 nM, a koff of 0.014 s⁻¹ and a kon of 860000 M⁻¹ s⁻¹.

For the molecule B4, the Kd stood at 11 nM, the koff was found to be 0.0079 s⁻¹ and the kon amounted to 720000 M⁻¹ s⁻¹.

For B5, the Kd was determined as 20 nM, the koff is 0.034 s⁻¹ and the kon came out at 1.7e+06 M⁻¹ s⁻¹.

B6: the Kd was 44 nM, the koff is 0.046 s⁻¹ and the kon was 1e+06 M⁻¹ s⁻¹.

As for B7, the Kd was 13 nM, the koff was 0.0085 s⁻¹ and the kon came out at 680000 M⁻¹ s⁻¹.

In turn, B8 showed a Kd of 13 nM, a koff of 0.0095 s⁻¹ and a kon of 710000 M⁻¹ s⁻¹.

Another assay concerns the target T3, Human CD44v6 iso4-Fc. Put plainly: SPR SCK, antibody immobilised, CD44v6-Fc injected; apparent KD. The method, then: as §3
Turning to B2, the Kd turned out to be 0.062 nM.

As to B3, the Kd worked out at 1.5 nM.

For the molecule B4, the Kd turned out to be 1 nM.

On to B5, for which the Kd amounted to 0.05 nM.

With B6, the Kd amounted to 1.2 nM.

In the case of B7, the Kd was 1.6 nM.

Take B8: the Kd was determined as 1.1 nM.
